Measurements: patent US20050106141A1 (PROCTER AND GAMBLE, published 2005)

Key:
LexA BD-HRt = target: T1, LexA BD-HRt (mouse, UniProt P0A7C2 1-202; Q61645 490-1182); experiment: yeast two-hybrid library screen; number of positive clones with this identity
T1 construct: domain: Lex A DNA BD;range 490-1182; also called BD-HRt(mouse); Lex A DNA BD-HRt
T1 sequence (looked up): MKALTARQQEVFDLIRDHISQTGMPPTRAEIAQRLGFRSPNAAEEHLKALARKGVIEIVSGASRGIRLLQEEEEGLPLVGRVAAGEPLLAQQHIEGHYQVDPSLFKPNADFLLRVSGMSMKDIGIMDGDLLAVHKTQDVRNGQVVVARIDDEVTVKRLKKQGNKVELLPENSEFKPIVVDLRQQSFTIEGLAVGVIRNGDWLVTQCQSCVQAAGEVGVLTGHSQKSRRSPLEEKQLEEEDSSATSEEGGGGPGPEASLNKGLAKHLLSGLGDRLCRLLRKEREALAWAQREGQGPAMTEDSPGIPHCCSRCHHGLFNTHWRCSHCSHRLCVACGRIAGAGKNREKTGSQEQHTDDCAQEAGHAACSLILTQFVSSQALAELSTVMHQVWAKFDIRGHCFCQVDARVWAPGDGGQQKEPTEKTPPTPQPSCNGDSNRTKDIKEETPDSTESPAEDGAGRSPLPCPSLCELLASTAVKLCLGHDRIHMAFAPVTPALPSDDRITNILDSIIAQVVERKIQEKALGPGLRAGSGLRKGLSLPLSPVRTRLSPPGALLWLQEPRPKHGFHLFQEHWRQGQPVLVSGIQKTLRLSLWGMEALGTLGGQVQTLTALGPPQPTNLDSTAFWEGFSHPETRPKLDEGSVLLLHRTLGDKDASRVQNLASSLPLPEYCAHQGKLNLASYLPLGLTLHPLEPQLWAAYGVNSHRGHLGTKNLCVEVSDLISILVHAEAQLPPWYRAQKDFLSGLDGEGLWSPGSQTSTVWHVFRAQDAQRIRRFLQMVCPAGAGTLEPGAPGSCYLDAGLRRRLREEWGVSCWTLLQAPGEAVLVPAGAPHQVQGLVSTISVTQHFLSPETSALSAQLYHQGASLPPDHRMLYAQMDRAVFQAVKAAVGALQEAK
Excerpt: Clontech Human Keratinocyte GAL4 cDNA library (complexity 2.5×10⁶) in pACT2 vector was used used to screen for HRt interacting proteins. A Leu⁻, Trp⁻ yeast strain with HIS3 and LACZ reporters for yeasts two hybrid interaction (strain L41) was first transformed with LexA BD-HRt palsmid) for Trp⁺ phenotype. The resulting L41/LexA BD-HR transformant was screened to ensure expression of LexA BD-HRt protein and also for lack of auto activation of the reporter genes HIS3 and LACZ. This strain was transformed with Keratinocyte AD-cDNA library and plated on Trp⁻Leu⁻His⁻ plate to select for clones with positive interaction. Colonies that appeared on selsctive plates were subsequently tested for LACZ expression on X-GAL plates. […] AD-plasmid was rescued from the 90 clones and retested for HRt bait dependance. […] The positive clones are expected to contain an AD-IP (interacting partner) that interacts with BD-HRt.

AD-HRt(mouse) = target: T2, AD-HRt(mouse) (mouse, UniProt Q61645 490-1182); experiment: cell-based or functional assay
T2 sequence (looked up): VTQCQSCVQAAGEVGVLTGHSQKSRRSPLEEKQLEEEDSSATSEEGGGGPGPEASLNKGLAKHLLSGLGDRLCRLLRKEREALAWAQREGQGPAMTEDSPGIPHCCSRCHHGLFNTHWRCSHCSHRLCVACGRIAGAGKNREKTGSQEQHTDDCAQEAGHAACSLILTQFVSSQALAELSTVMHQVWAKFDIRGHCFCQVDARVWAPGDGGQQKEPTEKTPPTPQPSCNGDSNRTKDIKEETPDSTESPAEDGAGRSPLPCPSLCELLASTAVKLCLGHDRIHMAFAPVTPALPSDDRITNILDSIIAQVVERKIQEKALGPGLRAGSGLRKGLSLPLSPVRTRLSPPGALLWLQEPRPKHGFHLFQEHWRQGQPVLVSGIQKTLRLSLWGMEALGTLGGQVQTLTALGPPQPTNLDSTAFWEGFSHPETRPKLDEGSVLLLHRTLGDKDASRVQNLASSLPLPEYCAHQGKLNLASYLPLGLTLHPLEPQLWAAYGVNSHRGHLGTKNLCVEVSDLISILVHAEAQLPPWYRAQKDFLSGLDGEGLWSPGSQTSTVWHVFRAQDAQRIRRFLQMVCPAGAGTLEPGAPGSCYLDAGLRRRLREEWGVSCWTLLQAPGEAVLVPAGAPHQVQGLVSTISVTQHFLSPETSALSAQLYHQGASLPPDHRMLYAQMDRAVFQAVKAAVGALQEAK

AD-TRβ = AD-TRβ (UniProt P04386 768-881); experiment: cell-based or functional assay
Chain of AD-TRβ (P04386 768-881): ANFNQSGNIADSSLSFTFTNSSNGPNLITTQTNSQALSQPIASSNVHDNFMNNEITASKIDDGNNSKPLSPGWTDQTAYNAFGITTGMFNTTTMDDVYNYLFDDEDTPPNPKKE

B1: Homo Sapiens Similar to Stromal Antigen 2 (other, UniProt Q8N3U4 1-1231, looked up, not shown: large carriers)
chain: MIAAPEIPTDFNLLQESETHFSSDTDFEDIEGKNQKQGKGKTCKKGKKGPAEKGKGGNGGGKPPSGPNRMNGHHQQNGVENMMLFEVVKMGKSAMQSVVDDWIESYKHDRDIALLDLINFFIQCSGCKGVVTAEMFRHMQNSEIIRKMTEEFDEDSGDYPLTMAGPQWKKFKSSFCEFIGVLVRQCQYSIIYDEYMMDTVISLLTGLSDSQVRAFRHTSTLAAMKLMTALVNVALNLSINMDNTQRQYEAERNKMIGKRANERLELLLQKRKELQENQDEIENMMNAIFKGVFVHRYRDAIAEIRAICIEEIGIWMKMYSDAFLNDSYLKYVGWTMHDKQGEVRLKCLTALQGLYYNKELNSKLELFTSRFKDRIVSMTLDKEYDVAVQAIKLLTLVLQSSEEVLTAEDCENVYHLVYSAHRPVAVAAGEFLYKKLFSRRDPEEDGMMKRRGRQGPNANLVKTLVFFFLESELHEHAAYLVDSMWDCATELLKDWECMNSLLLEEPLSGEEALTDRQESALIEIMLCTIRQAAECHPPVGRGTGKRVLTAKEKKTQLDDRTKITELFAVALPQLLAKYSVDAEKVTNLLQLPQYFDLEIYTTGRLEKHLDALLRQIRNIVEKHTDTDVLEACSKTYHALCNEEFTIFNRVDISRSQLIDELADKFNRLLEDFLQEGEEPDEDDAYQVLSTLKRITAFHNAHDLSKWDLFACNYKLLKTGIENGDMPEQIVIHALQCTHYVILWQLAKITESSSTKEDLLRLKKQMRVFCQICQHYLTNVNTTVKEQAFTILCDILMIFSHQIMSGGRDMLEPLVYTPDSSLQSELLSFILDHVFIEQDDDNNSADGQQEDEASKIEALHKRRNLLAAFCKLIVYTVVEMNTAADIFKQYMKYYNDYGDIIKETMSKTRQIDKIQCAKTLILSLQQLFNEMIQENGYNFDRSSSTFSGIKELARRFALTFGLDQLKTREAIAMLHKDGIEFAFKEPNPQGESHPPLNLAFLDILSEFSSKLLRQDKRTVYVYLEKFMTFQMSLRREDVWLPLMSYRNSLLAGGDDDTMSVISGISSRGSTVRSKKSKPSTGKRKVVEGMQLSLTEESSSSDSMWLSREQTLHTPVMMQTPQLTSTIMREPKRLRPEDSFMSVYPMQTEHHQTPLDYNRRGTSLMEDDEEPIVEDVMMSSEGRIEDLNEGMDFDTMDIDLPPSKNRRERTELKPDFFDPASIMDESVLGVSMF
notes: Prey clone; also called AD-IP; BC001765
Hits (LexA BD-HRt): 4

B2: Homo Sapiens Protein Inhibitor of Activated STAT-1 (PIAS1) (other, UniProt O75925 1-651, looked up, not shown: large carriers)
chain: MADSAELKQMVMSLRVSELQVLLGYAGRNKHGRKHELLTKALHLLKAGCSPAVQMKIKELYRRRFPQKIMTPADLSIPNVHSSPMPATLSPSTIPQLTYDGHPASSPLLPVSLLGPKHELELPHLTSALHPVHPDIKLQKLPFYDLLDELIKPTSLASDNSQRFRETCFAFALTPQQVQQISSSMDISGTKCDFTVQVQLRFCLSETSCPQEDHFPPNLCVKVNTKPCSLPGYLPPTKNGVEPKRPSRPINITSLVRLSTTVPNTIVVSWTAEIGRNYSMAVYLVKQLSSTVLLQRLRAKGIRNPDHSRALIKEKLTADPDSEIATTSLRVSLLCPLGKMRLTIPCRALTCSHLQCFDATLYIQMNEKKPTWVCPVCDKKAPYEHLIIDGLFMEILKYCTDCDEIQFKEDGTWAPMRSKKEVQEVSASYNGVDGCLSSTLEHQVASHHQSSNKNKKVEVIDLTIDSSSDEEEEEPSAKRTCPSLSPTSPLNNKGILSLPHQASPVSRTPSLPAVDTSYINTSLIQDYRHPFHMTPMPYDLQGLDFFPFLSGDNQHYNTSLLAAAAAAVSDDQDLLHSSRFFPYTSSQMFLDQLSAGGSTSLPTTNGSSSGSNSSLVSSNSLRESHSHTVTNRSSTDTASIFGIIPDIISLD
notes: Prey clone; extent of the clone unknown; also called AD-IP; AF167160
Hits (LexA BD-HRt): 1

B3: BD-VDR(mouse) (receptor, UniProt P04386 1-147, looked up)
chain: MKLLSSIEQACDICRLKKLKCSKEKPKCAKCLKNNWECRYSPKTKRSPLTRAHLTEVESRLERLEQLFLLIFPREDLDMILKMDSLQDIKALLTGLFVQDNVNKDAVTDRLASVETDMPLTLRQHRISATSSSEESSNKGQRQLTVSMEAMAASTSLPDPGDFDRNVPRICGVCGDRATGFHFNAMTCEGCKGFFRRSMKRKALFTCPFNGDCRITKDNRRHCQACRLKRCVDIGMMKEFILTDEEVQRKREMIMKRKEEEALKDSLRPKLSEEQQHIIAILLDAHHKTYDPTYADFRDFRPPIRADVSTGSYSPRPTLSFSGDSSSNSDLYTPSLDMMEPASFSTMDLNEEGSDDPSVTLDLSPLSMLPHLADLVSYSIQKVIGFAKMIPGFRDLTSDDQIVLLKSSAIEVIMLRSNQSFTLDDMSWDCGSQDYKYDITDVSRAGHTLELIEPLIKFQVGLKKLNLHEEEHVLLMAICIVSPDRPGVQDAKLVEAIQDRLSNTLQTYIRCRHPPPGSHQLYAKMIQKLADLRSLNEEHSKQYRSLSFQPENSMKLTPLVLEVFGNEIS
relative alpha-galactosidase activity (yeast two-hybrid reporter, assay of example 3) with 1alpha, 25-dihydroxy cholecalciferol (25 DHC) at sub-micromolar concentrations (AD-HRt(mouse)): > 3 fold | relative alpha-galactosidase activity (yeast two-hybrid reporter, assay of example 3) with 25-hydroxy cholecalciferol (25 HC) at sub-micromolar concentrations (AD-HRt(mouse)): > 3 fold | yeast two-hybrid reporter with 25 HC (AD-TRβ): ~2 fold

B4: Homo Sapiens Ubiquitous Receptor (receptor, UniProt P55055 1-460, looked up, not shown: large carriers)
chain: MSSPTTSSLDTPLPGNGPPQPGAPSSSPTVKEEGPEPWPGGPDPDVPGTDEASSACSTDWVIPDPEEEPERKRKKGPAPKMLGHELCRVCGDKASGFHYNVLSCEGCKGFFRRSVVRGGARRYACRGGGTCQMDAFMRRKCQQCRLRKCKEAGMREQCVLSEEQIRKKKIRKQQQESQSQSQSPVGPQGSSSSASGPGASPGGSEAGSQGSGEGEGVQLTAAQELMIQQLVAAQLQCNKRSFSDQPKVTPWPLGADPQSRDARQQRFAHFTELAIISVQEIVDFAKQVPGFLQLGREDQIALLKASTIEIMLLETARRYNHETECITFLKDFTYSKDDFHRAGLQVEFINPIFEFSRAMRRLGLDDAEYALLIAINIFSADRPNVQEPGRVEALQQPYVEALLSYTRIKRPQDQLRFPRMLMKLVSLRTLSSVHSEQVFALRLQDKKLPPLLSEIWDVHE
notes: Prey clone; also called Oxysterols Receptor LXR-Beta; LXR
Hits (LexA BD-HRt): 14

B5: Homo Sapiens DEAD (Asp-Glu-Ala-Asp) box polypeptide 3 (enzyme, UniProt O00571 1-662, looked up, not shown: large carriers)
chain: MSHVAVENALGLDQQFAGLDLNSSDNQSGGSTASKGRYIPPHLRNREATKGFYDKDSSGWSSSKDKDAYSSFGSRSDSRGKSSFFSDRGSGSRGRFDDRGRSDYDGIGSRGDRSGFGKFERGGNSRWCDKSDEDDWSKPLPPSERLEQELFSGGNTGINFEKYDDIPVEATGNNCPPHIESFSDVEMGEIIMGNIELTRYTRPTPVQKHAIPIIKEKRDLMACAQTGSGKTAAFLLPILSQIYSDGPGEALRAMKENGRYGRRKQYPISLVLAPTRELAVQIYEEARKFSYRSRVRPCVVYGGADIGQQIRDLERGCHLLVATPGRLVDMMERGKIGLDFCKYLVLDEADRMLDMGFEPQIRRIVEQDTMPPKGVRHTMMFSATFPKEIQMLARDFLDEYIFLAVGRVGSTSENITQKVVWVEESDKRSFLLDLLNATGKDSLTLVFVETKKGADSLEDFLYHEGYACTSIHGDRSQRDREEALHQFRSGKSPILVATAVAARGLDISNVKHVINFDLPSDIEEYVHRIGRTGRVGNLGLATSFFNERNINITKDLLDLLVEAKQEVPSWLENMAYEHHYKGSSRGRSKSSRFSGGFGARDYRQSSGASSSSFSSSRASSSRSGGGGHGSSRGFGGGGYGGFYNSDGYGGNYNSQGVDWWGN
notes: Prey clone; extent of the clone unknown; also called Homo Sapiens DEAD/H (Asp-Glu-Ala-Asp/His) Box Polypeptide 3; AD-IP
Hits (LexA BD-HRt): 2
